In the assay the target is GLR3.3-3Flag (Arabidopsis thaliana) (UniProt Q9C8E7). Put plainly: IP-MS, anti-Flag IP of GLR3.3-3Flag from leaves of transgenic plants; co-enrichment, may be indirect.
Sequence of GLR3.3-3Flag (Arabidopsis thaliana) (Q9C8E7 24-933): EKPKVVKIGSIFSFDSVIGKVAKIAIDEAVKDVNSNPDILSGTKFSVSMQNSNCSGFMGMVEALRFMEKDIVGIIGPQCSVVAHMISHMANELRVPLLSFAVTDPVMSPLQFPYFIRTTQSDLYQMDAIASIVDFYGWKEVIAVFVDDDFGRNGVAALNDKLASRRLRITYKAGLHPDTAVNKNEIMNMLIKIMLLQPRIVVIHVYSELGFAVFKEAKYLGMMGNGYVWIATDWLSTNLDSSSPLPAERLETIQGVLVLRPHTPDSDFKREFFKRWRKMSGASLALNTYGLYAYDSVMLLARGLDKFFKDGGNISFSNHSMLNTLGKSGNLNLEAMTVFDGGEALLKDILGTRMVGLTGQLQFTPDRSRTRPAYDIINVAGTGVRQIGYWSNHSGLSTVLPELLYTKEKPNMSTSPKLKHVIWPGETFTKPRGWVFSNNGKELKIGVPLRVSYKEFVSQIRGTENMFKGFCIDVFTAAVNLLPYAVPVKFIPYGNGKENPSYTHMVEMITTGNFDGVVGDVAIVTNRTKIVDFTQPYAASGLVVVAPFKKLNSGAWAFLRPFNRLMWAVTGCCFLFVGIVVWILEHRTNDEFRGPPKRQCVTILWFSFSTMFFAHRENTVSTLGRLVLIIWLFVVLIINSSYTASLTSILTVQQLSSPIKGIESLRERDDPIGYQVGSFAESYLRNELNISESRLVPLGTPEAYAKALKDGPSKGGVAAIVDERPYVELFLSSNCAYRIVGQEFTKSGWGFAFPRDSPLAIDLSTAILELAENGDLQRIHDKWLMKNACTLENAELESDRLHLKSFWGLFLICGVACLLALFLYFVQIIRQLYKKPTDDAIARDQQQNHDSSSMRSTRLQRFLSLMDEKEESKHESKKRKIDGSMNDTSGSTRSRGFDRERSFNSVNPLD

“AHA1 (plasma membrane proton ATPase 1) (from UniProt P20649 2-949) (enzyme)” displayed a unique peptide number (unique peptides) of 23.

Substance “AHA2 (plasma membrane proton ATPase 2) (from UniProt P19456 2-948) (enzyme)” had a unique peptide number (unique peptides) of 17.

Substance “AMY3 (plastid-localized α-amylase) (from UniProt Q94A41 56-887) (enzyme)” showed a unique peptide number (unique peptides) of 8.

The substance “ATMS1 (cobalamin-independent synthase family protein) (from UniProt O50008 1-765) (enzyme)” yielded a unique peptide number (unique peptides) of 14.

In turn, “CAM3 (calmodulin) (from UniProt P0DH98 1-149)” gave a unique peptide number (unique peptides) of 7.

“CAM5 (calmodulin) (from UniProt Q682T9 1-149)” registered a unique peptide number (unique peptides) of 7.

On to “CAM6 (calmodulin) (from UniProt Q03509 1-149)”, for which the unique peptide number (unique peptides) is 4.

“CAT2 (catalase) (from UniProt P25819 1-492) (enzyme)” registered a unique peptide number (unique peptides) of 6.

“CAT3 (catalase) (from UniProt Q42547 1-492) (enzyme)” gave a unique peptide number (unique peptides) of 6.

For the substance “CLPC1 (Clp protease ATP-binding subunit homologue) (from UniProt Q9FI56 39-929)”, the unique peptide number (unique peptides) came to 21.

As for “CaM7 (calmodulin 7) (from UniProt P59220 1-149)”, the unique peptide number (unique peptides) was found to be 11.

As for “EDD1 (glycine-tRNA ligase) (from UniProt Q8L785 51-1067) (enzyme)”, the unique peptide number (unique peptides) is 4.

“EIF3A (a subunit of eukaryotic initiation factor 3 (eIF3)) (from UniProt Q9LD55 1-987)” showed a unique peptide number (unique peptides) of 4.

“FTIP1 (multiple C2 domain and transmembrane region protein 1) (from UniProt Q9FL59 1-794)”: the unique peptide number (unique peptides) came to 21.

“GAPB (glyceraldehyde-3-phosphate dehydrogenase B subunit) (from UniProt P25857 81-447) (enzyme)” returned a unique peptide number (unique peptides) of 4.

In turn, “GLDP1 (glycine decarboxylase P-protein 1) (from UniProt Q94B78 68-1037) (enzyme)” yielded a unique peptide number (unique peptides) of 15.

Substance “GLDP2 (P-subunit of glycine decarboxylase) (from UniProt O80988 73-1044) (enzyme)” displayed a unique peptide number (unique peptides) of 11.

“GLR2.6 (from UniProt Q9LFN8 32-967) (receptor)” had a unique peptide number (unique peptides) of 12.

“GLR3.2 (from UniProt Q93YT1 23-912) (receptor)” had a unique peptide number (unique peptides) of 4.

Take “GLR3.5 (from UniProt Q9SW97 30-953) (receptor)”: the unique peptide number (unique peptides) came out at 9.

Consider “GLU1 (glutamate synthase 1) (from UniProt Q9ZNZ7 106-1622) (enzyme)”, for which the unique peptide number (unique peptides) came out at 57.

“GLU2 (glutamate synthase 2) (from UniProt Q9T0P4 108-1629) (enzyme)”: the unique peptide number (unique peptides) came out at 13.

Turning to “HSP70-1 (member of heat shock protein 70 family) (from UniProt P22953 2-651)”, the unique peptide number (unique peptides) worked out at 15.

In the case of “HSP70-2 (member of heat shock protein 70 family) (from UniProt P22954 1-653)”, the unique peptide number (unique peptides) is 12.

In the case of “KEA1 (K^+ efflux antiporter 1) (from UniProt Q9ZTZ7 50-1193)”, the unique peptide number (unique peptides) amounted to 5.

Substance “LOS1 (translation elongation factor 2-like protein) (from UniProt Q9ASR1 1-843)” had a unique peptide number (unique peptides) of 21.

As to “LOX2 (chloroplast lipoxygenase 2) (from UniProt P38418 57-896) (enzyme)”, the unique peptide number (unique peptides) came to 9.

Consider “NIT1 (nitrilase isoenzyme family) (from UniProt P32961 2-346)”, for which the unique peptide number (unique peptides) worked out at 17.

Take “PIP2; 1 (plasma membrane intrinsic protein 2A) (from UniProt P43286 1-287)”: the unique peptide number (unique peptides) came to 7.

“PIP2; 4 (plasma membrane intrinsic protein 2; 4) (from UniProt Q9FF53 1-291)” showed a unique peptide number (unique peptides) of 5.

Substance “PIP2; 7 (plasma membrane intrinsic protein 3) (from UniProt P93004 1-280)” gave a unique peptide number (unique peptides) of 7.

“PPC2 (phosphoenolpyruvate carboxylase protein 2) (from UniProt Q5GM68 1-963) (enzyme)” had a unique peptide number (unique peptides) of 12.

For “PWD (chloroplastidic phosphoglucan, water dikinase) (from UniProt Q6ZY51 55-1196) (enzyme)”, the unique peptide number (unique peptides) amounted to 43.

On to “RCA (rubisco activase) (from UniProt P10896 59-474) (enzyme)”, for which the unique peptide number (unique peptides) was found to be 12.

In the case of “TGG1 (member of glycoside hydrolase family 1) (from UniProt P37702 20-541) (enzyme)”, the unique peptide number (unique peptides) worked out at 6.

Substance “TIC110 (translocon at the chloroplast inner envelope) (from UniProt Q8LPR9 52-1016)” showed a unique peptide number (unique peptides) of 16.

As to “TKL1 (transketolase involved in carbon fixation) (from UniProt Q8RWV0 67-741) (enzyme)”, the unique peptide number (unique peptides) was found to be 17.

The substance “TPP2 (tripeptidyl peptidase II) (from UniProt F4JVN6 1-1380) (enzyme)” gave a unique peptide number (unique peptides) of 42.

Substance “UBA1 (ubiquitin-activating enzyme (E1)) (from UniProt P93028 1-1080)” had a unique peptide number (unique peptides) of 7.

As to “VEN3 (carbamoyl phosphate synthetase (CPS) large subunit) (from UniProt Q42601 63-1187) (enzyme)”, the unique peptide number (unique peptides) was found to be 12.

On to “coatomer, alpha subunit (from UniProt Q9SJT9 1-1218)”, for which the unique peptide number (unique peptides) is 10.

For the substance “tRNA synthetase class I (I, L, M and V) family protein (from UniProt F4JLM5 1-1190) (enzyme)”, the unique peptide number (unique peptides) was 62.

Source of the values: patent publication US20250270584A1, “Gene editing to provide insect resistance in crops” (The Regents of the University of California, priority 2022, published 2025).
